Measurements from patent US12319739 (F STAR DELTA, dated 2025).
Values belong to the binder of their own block, whether it stands above or below them.

How the values were obtained:
[1] = molecular target: T1, mouse CD137 ligand on DO11.10 cells (mouse, UniProt P41274 1-309); experiment: flow cytometry, detected with anti mouse Fc antibody
T1 construct: whole, on cells
T1 sequence (looked up): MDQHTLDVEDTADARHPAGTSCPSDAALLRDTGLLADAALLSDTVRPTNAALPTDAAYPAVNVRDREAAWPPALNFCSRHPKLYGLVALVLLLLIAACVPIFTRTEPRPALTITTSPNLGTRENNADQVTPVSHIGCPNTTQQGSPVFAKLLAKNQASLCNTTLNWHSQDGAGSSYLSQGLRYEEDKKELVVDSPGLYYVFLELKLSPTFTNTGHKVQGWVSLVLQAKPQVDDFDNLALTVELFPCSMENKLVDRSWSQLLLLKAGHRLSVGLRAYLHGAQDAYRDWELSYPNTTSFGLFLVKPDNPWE
Description: Cells were incubated with the CD137 antigens for 1 hour, and then a fluorescently labelled anti mouse Fc fragment antibody was used to detect cell binding.

mouse GITR = molecular target: T2, mouse GITR (mouse, UniProt O35714 20-153, limits assumed, chemically biotinylated (EZ-Link Sulfo-NHS-SS-Biotin)); experiment: BLI (Octet), biotinylated receptor on streptavidin sensors
T2 sequence (looked up): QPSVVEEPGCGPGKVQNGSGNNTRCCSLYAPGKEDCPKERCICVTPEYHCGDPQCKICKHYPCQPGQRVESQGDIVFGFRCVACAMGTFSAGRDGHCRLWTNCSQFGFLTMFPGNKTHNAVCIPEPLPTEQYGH
Description: (§1) The specificity of the anti-mouse CD137 Fcabs for mouse CD137 were tested in HeID1.3 "mock" mAb² format and measured by BLI in an Octet QKe system by testing for binding of the Fcabs to other mouse TNFRSF receptors (CD40, OX40, GITR). Streptavidin biosensors (PALL ForteBio 18-5021) to coat 10 ng/μl mouse CD40, GITR, OX40 receptors (all obtained from R&D Systems and biotinylated using an EZ-Link Sulfo-NHS-SS-Biotin kit from Thermoscientific #21328). Anti-mouse CD137 Fcabs in mock mAb² format were diluted 1:1 in kinetic buffer (PALL 18-1092) to a final concentration of at least 1 μM. Antigen-coated sensors were dipped into the mAb² solutions for 180 seconds followed by 180 seconds in 1× kinetic buffer. Antibodies for each of the TNFRSF receptors were used as positive controls.

mouse CD40 = mouse CD40 (mouse, UniProt P27512 24-193, limits assumed, chemically biotinylated (EZ-Link Sulfo-NHS-SS-Biotin)); experiment: as above
Description: as §1

[2] = molecular target: mouse CD137 expressed on cells (mouse, UniProt P20334 24-256); experiment: cell-based or functional assay
cMSLN-His-Avi = molecular target: T3, cMSLN-His-Avi (cynomolgus, single biotin on the Avi tag in the biotinylated form); experiment: SPR
T3 construct: Monomeric; also called cyno MSLN-His-Avi; cMSLN-Avi-His
T3 chain: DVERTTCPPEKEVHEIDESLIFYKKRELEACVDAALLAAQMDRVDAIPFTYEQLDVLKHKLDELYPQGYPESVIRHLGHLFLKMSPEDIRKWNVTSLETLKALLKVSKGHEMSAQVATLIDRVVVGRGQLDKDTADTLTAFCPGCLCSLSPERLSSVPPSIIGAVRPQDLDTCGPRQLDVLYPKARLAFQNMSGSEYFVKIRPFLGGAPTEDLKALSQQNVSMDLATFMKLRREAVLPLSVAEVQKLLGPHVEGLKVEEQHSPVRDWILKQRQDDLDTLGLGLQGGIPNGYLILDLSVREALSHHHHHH
Description: The association time was 5 min and the dissociation time was 5 min. Running buffer was HBS-EP (GE Healthcare BR100188). Flow cells were regenerated by injecting Glycine-HCl pH2.1 at a flow rate of 30 μl/min for 15 seconds. The data was analysed as described in Example 7.1.

hMSLN-His-Avi [3] = molecular target: T4, hMSLN-His-Avi (human, UniProt Q13421 296-598, single biotin on the Avi tag in the biotinylated form); experiment: SPR, hMSLN-His-Avi immobilised at 100 RU
T4 construct: Monomeric; also called human MSLN-His-Avi; hMSLN-Avi-His

hMSLN-His-Avi [4] = molecular target: T4, hMSLN-His-Avi; experiment: ELISA, hMSLN-His-Avi coated 1 µg/ml
human Thrombomodulin = human Thrombomodulin (human, UniProt P07204 19-515, limits assumed); experiment: ELISA, antigen coated 1 µg/ml
Description: (§2) Binding of the anti-MSLN mAbs, tested at a concentration range of 0.02 to 1000 nM (3-fold dilutions) was detected using anti-human Fab-HRP (Sigma, A0293).

human CEACAM-5-His-Fc = molecular target: T5, human CEACAM-5-His-Fc (human, UniProt P06731 35-685); experiment: ELISA, antigen coated 1 µg/ml
T5 sequence (looked up): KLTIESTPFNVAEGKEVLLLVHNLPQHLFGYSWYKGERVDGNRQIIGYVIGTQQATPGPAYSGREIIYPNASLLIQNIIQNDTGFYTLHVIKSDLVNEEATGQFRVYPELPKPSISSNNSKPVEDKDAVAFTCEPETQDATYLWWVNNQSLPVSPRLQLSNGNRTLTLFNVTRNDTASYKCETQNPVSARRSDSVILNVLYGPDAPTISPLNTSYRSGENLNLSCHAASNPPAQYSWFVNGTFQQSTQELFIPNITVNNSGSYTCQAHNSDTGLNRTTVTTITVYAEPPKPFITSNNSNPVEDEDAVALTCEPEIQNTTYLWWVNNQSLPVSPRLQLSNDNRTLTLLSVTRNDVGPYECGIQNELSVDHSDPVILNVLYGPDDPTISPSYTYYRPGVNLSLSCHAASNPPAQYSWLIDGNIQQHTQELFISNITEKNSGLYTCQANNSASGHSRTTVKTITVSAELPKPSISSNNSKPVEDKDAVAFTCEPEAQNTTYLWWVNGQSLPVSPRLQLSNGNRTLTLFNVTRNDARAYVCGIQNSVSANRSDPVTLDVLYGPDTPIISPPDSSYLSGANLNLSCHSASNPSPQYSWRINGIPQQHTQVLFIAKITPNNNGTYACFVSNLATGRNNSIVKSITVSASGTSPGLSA
Description: as §2

human E-Cadherin = molecular target: T6, human E-Cadherin (human, UniProt P12830 155-707); experiment: ELISA, antigen coated 1 µg/ml
T6 sequence (looked up): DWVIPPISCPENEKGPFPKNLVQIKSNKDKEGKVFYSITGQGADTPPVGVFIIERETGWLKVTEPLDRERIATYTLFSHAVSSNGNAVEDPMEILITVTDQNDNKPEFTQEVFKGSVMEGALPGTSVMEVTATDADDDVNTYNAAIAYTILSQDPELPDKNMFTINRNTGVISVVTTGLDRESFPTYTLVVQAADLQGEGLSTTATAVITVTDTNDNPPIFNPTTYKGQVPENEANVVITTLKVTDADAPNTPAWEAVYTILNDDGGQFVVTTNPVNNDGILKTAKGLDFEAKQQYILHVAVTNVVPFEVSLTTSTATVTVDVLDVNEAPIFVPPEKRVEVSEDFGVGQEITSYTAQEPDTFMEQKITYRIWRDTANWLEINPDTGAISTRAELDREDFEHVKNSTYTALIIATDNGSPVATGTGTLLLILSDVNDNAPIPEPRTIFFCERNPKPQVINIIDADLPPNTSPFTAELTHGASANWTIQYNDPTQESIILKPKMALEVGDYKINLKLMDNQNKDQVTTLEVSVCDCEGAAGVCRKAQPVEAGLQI
Description: as §2

human EpCAM-hFc = molecular target: T7, human EpCAM-hFc (human, UniProt P16422 24-265, limits assumed); experiment: ELISA, antigen coated 1 µg/ml
T7 sequence (looked up): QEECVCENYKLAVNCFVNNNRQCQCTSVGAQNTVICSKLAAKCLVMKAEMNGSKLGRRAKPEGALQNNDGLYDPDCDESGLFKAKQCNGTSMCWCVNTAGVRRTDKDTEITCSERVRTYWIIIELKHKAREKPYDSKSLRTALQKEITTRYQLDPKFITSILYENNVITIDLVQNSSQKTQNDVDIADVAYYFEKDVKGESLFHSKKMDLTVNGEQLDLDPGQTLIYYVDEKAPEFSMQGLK
Description: as §2

hMSLN-His-Avi [5] = molecular target: T4, hMSLN-His-Avi; experiment: SPR, hMSLN-His-Avi immobilised at 50 RU

T4 sequence (Q13421 other isoform, or with tags, fused parts or gaps): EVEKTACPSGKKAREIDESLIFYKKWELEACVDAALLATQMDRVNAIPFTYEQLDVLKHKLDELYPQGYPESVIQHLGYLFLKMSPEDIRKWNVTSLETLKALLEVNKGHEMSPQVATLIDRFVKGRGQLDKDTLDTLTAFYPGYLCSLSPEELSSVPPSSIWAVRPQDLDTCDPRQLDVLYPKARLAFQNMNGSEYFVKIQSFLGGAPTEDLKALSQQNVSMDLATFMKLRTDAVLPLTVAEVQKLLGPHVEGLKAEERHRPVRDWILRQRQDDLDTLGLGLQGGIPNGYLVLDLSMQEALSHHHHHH
Chain of human Thrombomodulin (P07204 19-515 limits assumed): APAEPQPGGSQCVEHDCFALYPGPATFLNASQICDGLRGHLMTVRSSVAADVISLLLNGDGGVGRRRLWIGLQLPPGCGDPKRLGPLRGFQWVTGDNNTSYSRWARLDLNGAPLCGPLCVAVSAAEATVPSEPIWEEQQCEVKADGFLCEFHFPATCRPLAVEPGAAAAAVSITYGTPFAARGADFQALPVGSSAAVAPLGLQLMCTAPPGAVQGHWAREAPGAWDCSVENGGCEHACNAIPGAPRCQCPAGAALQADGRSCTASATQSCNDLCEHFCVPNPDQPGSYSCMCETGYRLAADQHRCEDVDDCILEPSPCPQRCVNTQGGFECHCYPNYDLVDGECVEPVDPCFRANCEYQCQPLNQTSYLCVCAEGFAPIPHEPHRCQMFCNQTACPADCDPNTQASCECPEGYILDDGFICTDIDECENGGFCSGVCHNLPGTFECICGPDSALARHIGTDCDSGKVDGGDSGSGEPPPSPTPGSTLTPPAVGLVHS
Chain of mouse CD40 (P27512 24-193 limits assumed): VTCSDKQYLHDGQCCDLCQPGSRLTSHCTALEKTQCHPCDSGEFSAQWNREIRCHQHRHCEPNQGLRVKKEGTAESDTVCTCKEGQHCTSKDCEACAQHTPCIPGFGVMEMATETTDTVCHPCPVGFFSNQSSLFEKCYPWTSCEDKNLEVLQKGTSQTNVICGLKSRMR

binding result [1]: binds
B1: mCD137-mFc-Avi (Fc fusion, not shown: a dimerising Fc or GST; small tags and cut ends)
chain: VQNSCDNCQPGTFCRKYNPVCKSCPPSTFSSIGGQPNCNICRVCAGYFRFKKFCSSTHNAECECIEGFHCLGPQCTRCEKDCRPGQELTKQGCKTCSLGTFNDQNGTGVCRPWTNCSLDGRSVLKTGTTEKDVVCGPPVVSFSPSTTISVTPEGGPGGHSLQVL
modifications: one biotin on each Avi tag in the biotinylated form
notes: also called mouse dimeric CD137; mouse CD137-mFc-Avi

binding result (mouse GITR): no binding (tested: at least 1 µM) | binding result (mouse CD40): no binding (tested: at least 1 µM) | NF-κB luciferase reporter EC50, HEK.FRT.luc.mCD137 cells, crosslinked with Protein L [2]: 1.44 nM | NF-κB luciferase reporter, fold-change in activity upon Protein L crosslinking [2]: 27 fold
B2: FS22m-063 in mock mAb^2 (HelD1.3) format (bispecific antibody, human IgG1, kappa, L234A L235A)
heavy: QVQLQESGPGLVRPSQTLSLTCTVSGSTFSGYGVNWVRQPPGRGLEWIGMIWGDGNTDYNSALKSRVTMLVDTSKNQFSLRLSSVTAADTAVYYCARERDYRLDYWGQGSLVTVSSASTKGPSVFPLAPSSKSTSGGTAALGCLVKDYFPEPVTVSWNSGALTSGVHTFPAVLQSSGLYSLSSVVTVPSSSLGTQTYICNVNHKPSNTKVDKKVEPKSCDKTHTCPPCPAPEAAGGPSVFLFPPKPKDTLMISRTPEVTCVVVDVSHEDPEVKFNWYVDGVEVHNAKTKPREEQYNSTYRVVSVLTVLHQDWLNGKEYKCKVSNKALPAPIEKTISKAKGQPREPQVYTLPPSRDEPYWSYVSLTCLVKGFYPSDIAVEWESNGQPENNYKTTPPVLDSDGSFFLYSKLTVMNYRWELGNVFSCSVMHEALHNHYTQKSLSLSPG
light: DIQMTQSPASLSASVGETVTITCRASGNIHNYLAWYQQKQGKSPQLLVYNAKTLADGVPSRFSGSGSGTQYSLKINSLQPEDFGSYYCQHFWSTPRTFGGGTKLEIKRTVAAPSVFIFPPSDEQLKSGTASVVCLLNNFYPREAKVQWKVDNALQSGNSQESVTEQDSKDSTYSLSSTLTLSKADYEKHKVYACEVTHQGLSSPVTKSFNRGEC
notes: The entries are those of FS22m-063-AA/HelD1.3 (with LALA); also called FS22m-063-AA/HelD1.3; FS22m-063/HeID1.3

fold lower affinity for cyno MSLN than for human MSLN (cMSLN-His-Avi): ~5 fold | Kd (hMSLN-His-Avi [3]): 0.23 nM | EC50 (hMSLN-His-Avi [4]): ~0.5 nM | maximum binding signal (hMSLN-His-Avi [4]): 3 | binding result (human Thrombomodulin): no binding (tested: 1000 nM) | binding result (human CEACAM-5-His-Fc): no binding (tested: 1000 nM) | binding result (human E-Cadherin): no binding (tested: 1000 nM) | binding result (human EpCAM-hFc): no binding (tested: 1000 nM) | Kd (hMSLN-His-Avi [5]): 0.77 nM
B3: FS28-024 (mAb in G1-AA format) (antibody, human IgG1, V domains shown)
VH: EVQLLESGGGLVQPGGSLRLSCAASGFTLSYSSMSWVRQAPGKGLEWVSFITPSTGYTHYADSVKGRFTISRDNSKNTLYLQMNSLRAEDTAVYYCARRALTFDYWGQGTLVTVSS
VL: EIVLTQSPGTLSLSPGERATLSCRASQSVSSSYLAWYQQKPGQAPRLLIYGASSRATGIPDRFSGSGSGTDFTLTISRLEPEDFAVYYCQQASSYPLTFGQGTKVEIK
